We go through 4 substances from patent publication US20050222402A1, “Dna encoding rat bombesin receptor subtype-3 (brs-3) and uses thereof” (priority 2001, published 2005).

Numbering of substitutions follows the chain as printed. No end group written: not given here.

Assay [1] addresses T1, rat BRS-3 (Rattus norvegicus, UniProt Q8K418).
T1 construct: utilized to PCR amplify full-length rat BRS-3 cDNA; expressed in transfected cells; host or cells: 293EBNA cells, pE3 expression vector
T1 sequence (Q8K418 1-399): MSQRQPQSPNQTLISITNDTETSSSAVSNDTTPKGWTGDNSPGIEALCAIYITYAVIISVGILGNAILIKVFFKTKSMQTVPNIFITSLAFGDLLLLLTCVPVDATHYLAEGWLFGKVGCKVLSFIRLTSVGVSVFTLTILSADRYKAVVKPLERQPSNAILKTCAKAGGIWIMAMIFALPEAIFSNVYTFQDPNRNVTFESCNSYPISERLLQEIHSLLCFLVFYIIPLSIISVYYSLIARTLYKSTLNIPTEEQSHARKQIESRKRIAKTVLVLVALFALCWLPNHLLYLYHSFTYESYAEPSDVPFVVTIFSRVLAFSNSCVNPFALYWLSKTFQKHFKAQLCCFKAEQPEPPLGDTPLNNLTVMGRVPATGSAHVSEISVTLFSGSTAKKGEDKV
Briefly: Phosphatidylinositol hydrolysis functional assay. It is filed as cell-based. The note with it: peptide at 10 uM, transfected 293EBNA cells. How it is done: (§1) Wild type and mutant BRS-3 constructs were transfected by using lipofectamine reagents (Life Technologies, Rockville, Md.) into 293EBNA cells (Invitrogen, Carlsbad, Calif.) which support episomal replication of plasmid containing Epstein Bar virus OriP segment. Stable cell lines were obtained by selection with 250 ug/ml hygromycin. The cells were maintained as monolayers in Dulbecco's modified Eagle's medium (Life Technologies, Rockville, Md.) supplemented with 10% fetal bovine serum and incubated at 37° C. in a humidified 5% CO2 incubator.
The functional properties of rat BRS-3 were characterized in transfected 293EBNA cells. The transfected 293EBNA cells were plated onto poly-D-lysine coated 12-well plates and incubated in the medium containing 2 uCi/ml [^3H]myo-inositol. The cells were labeled for 48 hrs, and subsequently incubated for 30 minutes in Hank's balanced salt solution containing 10 mM HEPES, 0.1% BSA and 10 mM LiCl.
Since a natural agonist of BRS-3 has not been found, members of the bombesin-like peptide family, including GRP, NMB, bombesin and dYB, were used to stimulate the transfected cells described above, in the same buffer, for 1 hr at 37° C. The reaction was stopped by removal of medium and addition of 10 mM formic acid. The inositol monophosphate fraction was then isolated by anion chromatography as described (Berridge et al. Biochem. J. 212: 473-482 (1983), which is hereby incorporated by reference).

The target of assay [2] is T1, rat BRS-3. Briefly: Calcium mobilization assay (FLIPR), transfected 293EBNA cells. It is filed as cell-based. How it is done: as §1
The functional activity of rat BRS-3 was also studied by measuring the agonist-induced calcium mobilization response using a Fluorescence Imaging Plate Reader (Molecular Devices, Sunnyvale, Calif.). Transfected 293EBNA cells were plated onto poly-D-lysine coated 96-well plates with black wall and clear bottom (Becton Dickinson, Franklin Lakes, N.J.). After 16-48 hr culture, the cells were loaded with 4 uM Fluo-3-AM fluorescent calcium-indicator dye (Molecular Probes, Eugene, OR) in assay buffer (Hank's balanced salts solution, 10 mM HEPES, pH7.4, 0.1% bovine serum albumin, 2.5 mM probenecid).
The changes in intracellular calcium concentration, as indicated by Fluo-3 fluorescence, were immediately measured by FLIPR. Maximal changes in fluorescence over base line were used to determine agonist response.
The EC50 values were mean±S.E. calculated from dose-response curves of 3-5 repeated experiments using FLIPR assays.
On the technique in general: Calcium assays in cells follow changes in intracellular calcium, usually with a dye or a luminescent sensor.

Another assay has as its target T2, RBB3-E3 (Rattus norvegicus, UniProt Q8K418, A302V/D306A/E299Q/E303D/P308H/S300T/V307M/V310I/V311F/Y298S).
T2 construct: expressed in transfected cells; host or cells: 293EBNA cells, pE3 expression vector
T2 sequence (Q8K418 1-399 Y298S/E299Q/S300T/A302V/E303D/D306A/V307M/P308H/V310I/V311F): T1 sequence (Q8K418 1-399) with Y298S, E299Q, S300T, A302V, E303D, D306A, V307M, P308H, V310I, V311F
Briefly: Radioligand binding assay with 125I-dYB. Also on record: species or system rat/human. Conditions: competition with [125I]dYB. As for the experimental part: After removal of cell nuclei by a low speed centrifugation (1000×g) step, the cell membrane proteins were collected by centrifugation at 35,000×g for 20 minutes. The membrane protein concentration was determined by the Bradford method using BSA as standard.
After a 2 hr incubation at room temperature, the binding reaction was terminated by filtering through a GF/c filter-mate and washing the filter with binding buffer using Packard 96-well Topcount Harvester. The amount of radioligand bound to the receptor was determined by measurement of the radioactivity on the filter through liquid scintillation counting. The non-specific binding was defined as the binding in the presence of 1 uM unlabeled dYB.

For a further assay, the target named is RB3-IF (rat) (UniProt Q8K418). Briefly: cell-based or functional assay.
Assay [3] concerns the target human bombesin receptor subtype-3 (human) (UniProt P32247). Briefly: cell-based or functional assay.
Assay [4] concerns the target rat bombesin receptor subtype-3 (rat) (UniProt Q8K418). In words: cell-based or functional assay.
In another assay the target is RB3-AMH (rat) (UniProt Q8K418). In words: cell-based or functional assay.
In another assay the target is RB3-VD (rat) (UniProt Q8K418). Briefly: cell-based or functional assay.
A further assay has as its target RB3-SQT (rat) (UniProt Q8K418). In words: cell-based or functional assay.
Another assay concerns the target RBB3-E3 (rat; human) (UniProt Q8K418). Briefly: cell-based or functional assay.
Assay [5] concerns the target rat bombesin receptor subtype-3 (rat) (UniProt Q8K418). Briefly: summary statement in the description; assay not named.

Sequence of human bombesin receptor subtype-3 (human) (P32247 whole entry): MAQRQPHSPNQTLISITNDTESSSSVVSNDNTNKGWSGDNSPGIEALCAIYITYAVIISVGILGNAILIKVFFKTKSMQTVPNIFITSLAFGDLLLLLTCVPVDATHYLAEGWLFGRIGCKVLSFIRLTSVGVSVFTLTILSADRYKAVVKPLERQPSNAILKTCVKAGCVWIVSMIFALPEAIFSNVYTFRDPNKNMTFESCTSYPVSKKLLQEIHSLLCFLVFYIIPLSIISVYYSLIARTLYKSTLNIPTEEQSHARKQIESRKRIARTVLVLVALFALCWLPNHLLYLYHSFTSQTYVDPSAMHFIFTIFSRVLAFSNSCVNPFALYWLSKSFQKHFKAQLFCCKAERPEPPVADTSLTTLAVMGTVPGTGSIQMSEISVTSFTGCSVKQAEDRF

For the substance neuromedin B [NMB], the “stimulation of phosphatidylinositol (PI) hydrolysis (inositol monophosphate production)” value in the assay with rat BRS-3 [1] is “significant increase”. In addition, the intracellular calcium response entry with rat BRS-3 [2] (concentrations below 1.0 uM) is reported as “none of the four peptides could stimulate a significant calcium response”; with rat BRS-3 [2] (peptide at 10 uM), “transient increase in intracellular calcium concentration”. In addition, the binding affinity entry with RBB3-E3 is “uM low affinities”.
Turning to “gastrin-releasing peptide (VPLPAGGGTVLTKMYPRGNHWAVGHLM; ends and bridges not checked; UniProt P07492 24-50, looked up) [GRP, bombesin-like peptide found in mammals]”, the “stimulation of phosphatidylinositol (PI) hydrolysis (inositol monophosphate production)” value in the assay with rat BRS-3 [1] is “significant increase”. The intracellular calcium response entry in the assay with rat BRS-3 [2] (concentrations below 1.0 uM) is given as “none of the four peptides could stimulate a significant calcium response”; in the assay with rat BRS-3 [2] (peptide at 10 uM), “transient increase in intracellular calcium concentration”. In addition, in the assay with RBB3-E3, the binding affinity entry is “uM low affinities”.
For the substance phyllolitorin, the binding affinity result at RBB3-E3 is reported as “uM low affinities”.
On to “[D-Tyr6-betaAla11-Phe13-Nle14] bombesin (6-14) (peptide)”, for which the EC50, calcium mobilization (FLIPR) with RB3-IF (rat) amounted to 1300 nM; in [3] it was 1.2 nM; in [4], 2200 nM; with RB3-AMH (rat), 370 nM; in the assay with RB3-VD (rat) it was 930 nM; with RB3-SQT (rat), 390 nM. In the assay with RBB3-E3 (rat; human), the EC50, calcium mobilization (FLIPR) is 2.8 nM. Moreover, the fold difference in dYB potency between human and rodent BRS-3 in [4] stood at 1000 fold. Besides, the phosphatidylinositol (PI) hydrolysis, inositol monophosphate production, peptide at 10 uM in [4] is 9 fold. The fold improvement of dYB potency against rat BRS-3, calcium mobilization amounted to 6 fold in the assay with RB3-AMH (rat) and 5 fold in the assay with RB3-SQT (rat). The substance also gave a fold lower affinity than human BRS-3 in [5] of 1000 fold.
